{
  "source": "paper PMC3695626",
  "about": "(Cell, 2013)",
  "proteins": {"B1": {"name": "GroES (natural protein, E. coli)", "chain": "MNIRPLHDRVIVKRKEVETKSAGGIVLTGSAAAKSTRGEVLAVGNGRILENGEVKPLDVKVGDIVIFNDGYGVKSEKIDNEEVLIMSESDILAIVEA"}},
  "biological_target": "the molecule itself",
  "experiment": "cryo-EM structure",
  "data": [
    {"protein": "B1", "values": [
      {"measurement": "stoichiometry N", "result": 7}
    ]}
  ]
}
